Assay results: publication PMC314469, “Protein Interaction Networks by Proteome Peptide Scanning” (PLoS Biology, 2004)

T1: Boi1 SH3 (BOI1_YEAST), P38041
T1 chain: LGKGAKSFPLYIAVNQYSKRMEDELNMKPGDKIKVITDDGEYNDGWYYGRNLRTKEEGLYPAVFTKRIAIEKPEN

T2: Boi2 SH3 (BOI2_YEAST), P39969
T2 chain: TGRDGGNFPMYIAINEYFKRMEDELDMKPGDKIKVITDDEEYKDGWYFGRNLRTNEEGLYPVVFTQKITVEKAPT

T3: Myo5 SH3 (MYO5_YEAST), Q04439
T3 chain: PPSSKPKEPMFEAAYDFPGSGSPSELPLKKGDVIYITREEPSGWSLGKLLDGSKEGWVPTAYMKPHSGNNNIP

T4: Rvs167 SH3 (RV167_YEAST), P39743
T4 chain: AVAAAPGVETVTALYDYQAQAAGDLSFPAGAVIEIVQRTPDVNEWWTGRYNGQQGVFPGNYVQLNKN

T5: Yfr024 SH3 (LSB3_YEAST), P43603
T5 chain: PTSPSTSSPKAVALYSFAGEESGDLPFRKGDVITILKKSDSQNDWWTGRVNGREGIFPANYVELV

T6: Yhr016c SH3 (YSC84_YEAST), P32793
T6 chain: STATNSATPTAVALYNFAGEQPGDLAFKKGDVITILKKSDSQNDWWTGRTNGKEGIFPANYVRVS


Assays:
Assay in all cases: SPOT array
[1] = biological target: T1, Boi1 SH3 (BOI1_YEAST), P38041
[2] = biological target: T2, Boi2 SH3 (BOI2_YEAST), P39969
[3] = biological target: T3, Myo5 SH3 (MYO5_YEAST), Q04439
[4] = biological target: T4, Rvs167 SH3 (RV167_YEAST), P39743
[5] = biological target: Sho1 SH3 (SHO1_YEAST), P40073
Sequence of Sho1 SH3 (SHO1_YEAST), P40073 (P40073 295-366): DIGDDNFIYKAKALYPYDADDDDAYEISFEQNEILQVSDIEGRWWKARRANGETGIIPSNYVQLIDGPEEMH

[6] = biological target: T5, Yfr024 SH3 (LSB3_YEAST), P43603
[7] = biological target: T6, Yhr016c SH3 (YSC84_YEAST), P32793

| normalised SPOT signal, Boehringer light units (BLU); mean over the file's lines of this peptide [1] | normalised SPOT signal, Boehringer light units (BLU); mean over the file's lines of this peptide [2] | normalised SPOT signal, Boehringer light units (BLU); mean over the file's lines of this peptide [3] | normalised SPOT signal, Boehringer light units (BLU); mean over the file's lines of this peptide [4] | normalised SPOT signal, Boehringer light units (BLU); mean over the file's lines of this peptide [5] | normalised SPOT signal, Boehringer light units (BLU); mean over the file's lines of this peptide [6] | normalised SPOT signal, Boehringer light units (BLU); mean over the file's lines of this peptide [7] | Binder |
| --- | --- | --- | --- | --- | --- | --- | --- |
| 4340 | 19.8 | 15000 | 57 | 8.1 | 212 | 39.4 | PPPPRRGPAPPPPP [YOR181W 345-358] |
| 940 | 16.2 | 3590 | 18900 | 25000 | 12800 | 3660 | PKKSRVLPPLPFPL [YER032W 884-897] |
| 262 | 167 | 154 | 33 | 50.2 | 64.6 | 27.1 | PIVKKNVPKPPPLV [YBR123C 400-413] |
| 1660 | 0 | 361 | 49.7 | 46.8 | 928 | 59.8 | PKHIRNEPVKPFRN [YHR037W 25-38] |
| 536 | 7.7 | 116 | 44.3 | 84.8 | 0 | 0.1 | PKSEKIEPLSPSFK [YJL172W 61-74] |
| 73.1 | 0 | 137 | 28.8 | 20.3 | 15.3 | 16.4 | PNPLKKAPIPPLAY [YPR059C 36-49] |
| 609 | 9.7 | 193 | 64.7 | 22000 | 89.9 | 24.1 | PKTGKPLPTQPSSS [YKR001C 557-570] |

Continued, binder first:

| Binder | normalised SPOT signal, Boehringer light units (BLU); mean over the file's lines of this peptide [1] | normalised SPOT signal, Boehringer light units (BLU); mean over the file's lines of this peptide [2] | normalised SPOT signal, Boehringer light units (BLU); mean over the file's lines of this peptide [3] | normalised SPOT signal, Boehringer light units (BLU); mean over the file's lines of this peptide [4] | normalised SPOT signal, Boehringer light units (BLU); mean over the file's lines of this peptide [5] | normalised SPOT signal, Boehringer light units (BLU); mean over the file's lines of this peptide [6] | normalised SPOT signal, Boehringer light units (BLU); mean over the file's lines of this peptide [7] |
| --- | --- | --- | --- | --- | --- | --- | --- |
| PPSIRKQPIAPDVL [YJR092W 754-767] | 220 | 13.5 | 150 | 49.5 | 25.8 | 450 | 29.6 |
| PPLPRAPPVPPATF [YJL021C 6-19] | 152 | 13.2 | 35900 | 17.7 | 29.4 | 135 | 10.8 |
| PPRFKNFPTLPSKI [YLL015W 59-72] | 572 | 60.1 | 634 | 210 | 3830 | 2550 | 87.6 |
| PPNYKQQPNSPSSN [YLR183C 18-31] | 61 | 17.5 | 148 | 1 | 27.6 | 184 | 30.5 |
| PKSPKAYPKLPDIQ [YDL117W 352-365] | 409 | 23.5 | 357 | 0 | 143 | 83.8 | 24.1 |
| PIGSRYNPNLPVTE [YPR019W 677-690] | 132 | 148 | 187 | 95.7 | 36.1 | 197 | 87.4 |
| PIRLRKRPPPPPPV [YIL156W 508-521] | 6390 | 39.2 | 60300 | 289 | 98.1 | 292 | 25.6 |
| PLRERIIPILPANS [YMR164C 159-172] | 340 | 16 | 175 | 261 | 950 | 949 | 84.4 |
| PPQMRSNPQQPPQD [YPL204W 472-485] | 92.2 | 194 | 268 | 306 | 56.5 | 3150 | 456 |
